Data as given in article PMC5306358.

Biological target: tissue factor (TF), endogenous on human cells (human (endogenous in HMVEC, HUVEC, HAEC, MDA-MB-231)) (UniProt P13726)
UniProt P13726, sequence (P13726 33-295): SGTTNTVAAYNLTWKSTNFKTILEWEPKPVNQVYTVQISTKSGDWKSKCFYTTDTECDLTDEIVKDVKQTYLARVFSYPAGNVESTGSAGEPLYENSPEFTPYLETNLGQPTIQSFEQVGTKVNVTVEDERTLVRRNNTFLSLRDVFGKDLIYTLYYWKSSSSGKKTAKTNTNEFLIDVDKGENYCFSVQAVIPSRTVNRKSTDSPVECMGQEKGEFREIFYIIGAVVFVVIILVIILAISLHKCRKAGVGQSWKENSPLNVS

mfVII/NLS-SnCe6 conjugate (ligand)
clonogenic assay of angiogenic HMVEC after fVII-tPDT with fVII/NLS-SnCe6 (0.0, 0.5, 1 and 2 μM SnCe6, 635 nm laser light at 36 J/cm^2); EC50 of SnCe6 for killing: 31 nM
